Experimental data: patent US20200207859A1 (priority 2017, published 2020)

How the values were obtained:
RPMI-6666 (HL) = test: Cell killing assay (cell proliferation, Cell Titer-Glo); assay type: cell-based; conditions: 72 hrs
Protocol: (§1) Cytotoxicity effects of the free drug linkers and conjugates were measured with a cell proliferation assay. A total of 12500 cells in a volume of 25 μl were seeded in a 384-well flat bottom white polystyrene plate on the day of assay. Free drug-linkers and conjugates were formulated at 2× starting concentration (1000 nM for free drug linkers and 100 nM for ADCs) in RPMI medium and filtered through MultiScreen HTS 96-Well Filter Plates (Millipore). Filter sterilized samples were serial diluted (1:3) under sterile conditions and added into treatment wells. Plates were cultured at 37° C. in a CO2 incubator for 72 hrs. For cell viability measurement, 30 μl of Cell Titer-Glo® reagent (Promega Corp.) was added into each well, and plates processed as per product instructions. Relative luminescence was measured on an ENVISION® plate reader (Perkin-Elmer; Waltham, Mass.). Relative luminescence readings were converted to % viability using untreated cells as controls. Data was fitted with non-linear regression analysis, using log(inhibitor) vs. response, variable slope, 4 parameter fit equation using GraphPad Prism. Data was expressed as % relative cell viability vs. dose of free drug-linker or conjugate in nM.

BDCM (AML) = test: as above; assay type: cell-based; conditions: 72 hrs
Protocol: as §1

JVM-13 (CLL) = test: as above; assay type: cell-based; conditions: 72 hrs
Protocol: as §1

SUP-B15 (ALL) = test: as above; assay type: cell-based; conditions: 72 hrs
Protocol: as §1

ARP-1 (MM) = test: as above; assay type: cell-based, human; conditions: 72 hrs
Protocol: as §1

ARD (MM) = test: as above; assay type: cell-based, human; conditions: 72 hrs
Protocol: as §1

SU-DHL-6 (NHL) = test: as above; assay type: cell-based, human; conditions: 72 hrs
Protocol: as §1

RPMI-8226 (MM) = test: as above; assay type: cell-based; set-up: key to Cell Killing Activity Span: NK = no killing; NB = no binding; conditions: 72 hrs
Protocol: as §1

OPM-2 (MM) = test: as above; assay type: cell-based; set-up: key to Cell Killing Activity Span: NK = no killing; NB = no binding; conditions: 72 hrs
Protocol: as §1

K562 (CML) = test: as above; assay type: cell-based; set-up: key to Cell Killing Activity Span: NK = no killing; NB = no binding; conditions: 72 hrs
Protocol: as §1

CD74 (human), P04233 = test: cell-based or functional assay
Sequence of CD74 (human), P04233 (P04233 whole entry): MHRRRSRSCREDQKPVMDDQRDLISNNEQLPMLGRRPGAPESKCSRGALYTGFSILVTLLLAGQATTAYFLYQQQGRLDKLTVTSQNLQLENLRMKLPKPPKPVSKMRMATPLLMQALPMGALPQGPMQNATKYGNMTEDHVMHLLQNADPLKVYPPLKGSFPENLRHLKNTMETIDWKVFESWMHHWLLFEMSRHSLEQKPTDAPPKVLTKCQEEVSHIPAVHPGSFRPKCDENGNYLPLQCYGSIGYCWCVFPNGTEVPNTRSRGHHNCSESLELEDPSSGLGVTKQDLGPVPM

B1: Conjugate F: anti-CD74 IgG containing residue 30 conjugated to a PEG4-MMAE precursor (conjugate)
VH: QVQLVESGGGVVQPGRSLRLSCAASGFNFSDYGMHWVRQAPGKGLEWVAVIWYDGSISYYADSVKGRFTISRDNSKNTLYLQMNSLRAEDTAVYYCARGGTVEHGAVYGTDVWGQGTTVTVSS
VL: DIQMTQSPSSVSASVGDRVTITCRASQGIGSWLAWYQQKPGKAPKLLIYAADRLQSGVPSRFSGSGSGTDFTLTISSLQPEDFATYYCQQYHTYPLTFGGGTKVEIK
In the case of B1, the “Cell Killing Activity Span” value (RPMI-6666 (HL)) is reported as 82%, the “Cell Killing Activity Span” value (BDCM (AML)) is reported as 94% and the IC50 (BDCM (AML)) is reported as 1.4 nM. The “Cell Killing Activity Span” value (JVM-13 (CLL)) was 59%, the IC50 (JVM-13 (CLL)) was 5 nM and the “Cell Killing Activity Span” value (SUP-B15 (ALL)) was 65%. The IC50 (SUP-B15 (ALL)) was 3.7 nM, the “Cell Killing Activity Span” value (ARP-1 (MM)) was 93% and the IC50 (ARP-1 (MM)) was 4.2 nM. For the same molecule, the “Cell Killing Activity Span” value (ARD (MM)) was 73%, the IC50 (ARD (MM)) was 16 nM and the “Cell Killing Activity Span” value (SU-DHL-6 (NHL)) was 97%. The “Cell Killing Activity Span” value (RPMI-8226 (MM)) was 31%, the IC50 (RPMI-8226 (MM)) was 20 nM and the “Cell Killing Activity Span” value (OPM-2 (MM)) was “NK”. For the same molecule, the IC50 (OPM-2 (MM)) was > 50 nM, the “Cell Killing Activity Span” value (K562 (CML)) was “NK” and the IC50 (K562 (CML)) was > 50 nM.

B2: Conjugate F (anti-CD74 IgG-PEG4-MMAE conjugate) (antibody, V domains shown)
VH: B1 VH
VL: B1 VL
modifications: here or on the partner: modified amino acid residue 30 (pAMF) according to Example 2, position not stated for this conjugate, linked to PEG4-MMAE
B2 showed a cell killing IC50, ARD (MM) cells (CD74 (human), P04233) of 16 nM, a cell killing IC50, ARP-1 (MM) cells (CD74 (human), P04233) of 4.2 nM and a cell killing IC50, BDCM (AML) cells (CD74 (human), P04233) of 1.4 nM. The cell killing IC50, JVM-13 (CLL) cells (CD74 (human), P04233) was 5 nM, the cell killing IC50, RPMI-6666 (HL) cells (CD74 (human), P04233) was 0.7 nM and the cell killing IC50, RPMI-8226 (MM) cells (CD74 (human), P04233) was 20 nM. The cell killing IC50, SU-DHL-6 (NHL) cells (CD74 (human), P04233) was 0.3 nM, the cell killing IC50, SUP-B15 (ALL) cells (CD74 (human), P04233) was 3.7 nM and the cell killing Span, ARD (MM) cells (CD74 (human), P04233) was 73%. The cell killing Span, ARP-1 (MM) cells (CD74 (human), P04233) was 93%, the cell killing Span, BDCM (AML) cells (CD74 (human), P04233) was 94% and the cell killing Span, JVM-13 (CLL) cells (CD74 (human), P04233) was 59%. For the same molecule, the cell killing Span, RPMI-6666 (HL) cells (CD74 (human), P04233) was 82%, the cell killing Span, RPMI-8226 (MM) cells (CD74 (human), P04233) was 31% and the cell killing Span, SU-DHL-6 (NHL) cells (CD74 (human), P04233) was 97%. The cell killing Span, SUP-B15 (ALL) cells (CD74 (human), P04233) was 65%.

B3: Conjugate B (anti-CD74 IgG-PEG4-maytansine conjugate) (antibody, V domains shown)
VH: B1 VH
VL: B1 VL
modifications: here or on the partner: modified amino acid residue 30 (pAMF) according to Example 2, position not stated for this conjugate, linked to a PEG4-maytansine linker-payload
B3 was tested, and the cell killing IC50, ARD (MM) cells (CD74 (human), P04233) was 31 nM, the cell killing IC50, ARP-1 (MM) cells (CD74 (human), P04233) was 16 nM and the cell killing IC50, BDCM (AML) cells (CD74 (human), P04233) was 15 nM. For the same molecule, the cell killing IC50, JVM-13 (CLL) cells (CD74 (human), P04233) was 2 nM, the cell killing IC50, RPMI-6666 (HL) cells (CD74 (human), P04233) was 1.3 nM and the cell killing IC50, RPMI-8226 (MM) cells (CD74 (human), P04233) was 51 nM. For the same molecule, the cell killing IC50, SU-DHL-6 (NHL) cells (CD74 (human), P04233) was 1.3 nM, the cell killing IC50, SUP-B15 (ALL) cells (CD74 (human), P04233) was 5.7 nM and the cell killing Span, ARD (MM) cells (CD74 (human), P04233) was 53%. For the same molecule, the cell killing Span, ARP-1 (MM) cells (CD74 (human), P04233) was 82%, the cell killing Span, BDCM (AML) cells (CD74 (human), P04233) was 95% and the cell killing Span, JVM-13 (CLL) cells (CD74 (human), P04233) was 69%. For the same molecule, the cell killing Span, RPMI-6666 (HL) cells (CD74 (human), P04233) was 89%, the cell killing Span, RPMI-8226 (MM) cells (CD74 (human), P04233) was 41% and the cell killing Span, SU-DHL-6 (NHL) cells (CD74 (human), P04233) was 98%. For the same molecule, the cell killing Span, SUP-B15 (ALL) cells (CD74 (human), P04233) was 72%.

B4: Conjugate C: anti-CD74 IgG containing residue 30 conjugated to a val-cit-PAB-hemiasterlin precursor (conjugate)
VH: B1 VH
VL: B1 VL
modifications: non-natural residues
For B4, the “Cell Killing Activity Span” value (RPMI-6666 (HL)) was 84%, the “Cell Killing Activity Span” value (BDCM (AML)) was 89% and the “Cell Killing Activity Span” value (JVM-13 (CLL)) was 54%. The “Cell Killing Activity Span” value (SUP-B15 (ALL)) was 68%, the “Cell Killing Activity Span” value (ARP-1 (MM)) was 87% and the “Cell Killing Activity Span” value (ARD (MM)) was 74%. For the same molecule, the “Cell Killing Activity Span” value (SU-DHL-6 (NHL)) was 97%, the “Cell Killing Activity Span” value (RPMI-8226 (MM)) was 43% and the “Cell Killing Activity Span” value (OPM-2 (MM)) was “NK”. The IC50 (OPM-2 (MM)) was > 50 nM, the “Cell Killing Activity Span” value (K562 (CML)) was “NK” and the IC50 (K562 (CML)) was > 50 nM.

B5: Conjugate E: anti-CD74 IgG containing residue 30 conjugated to a PEG4-MMAF precursor (conjugate)
VH: B1 VH
VL: B1 VL
B5 was tested, and the “Cell Killing Activity Span” value (BDCM (AML)) was 78%, the IC50 (BDCM (AML)) was 3.3 nM and the “Cell Killing Activity Span” value (JVM-13 (CLL)) was 47%. The IC50 (JVM-13 (CLL)) was 7.8 nM, the “Cell Killing Activity Span” value (SUP-B15 (ALL)) was 58% and the IC50 (SUP-B15 (ALL)) was 2.5 nM. The “Cell Killing Activity Span” value (ARP-1 (MM)) was 71%, the IC50 (ARP-1 (MM)) was 6 nM and the “Cell Killing Activity Span” value (ARD (MM)) was 20%. The IC50 (ARD (MM)) was 18 nM, the “Cell Killing Activity Span” value (SU-DHL-6 (NHL)) was 98% and the IC50 (SU-DHL-6 (NHL)) was 0.5 nM. The “Cell Killing Activity Span” value (RPMI-8226 (MM)) was “NK”, the IC50 (RPMI-8226 (MM)) was > 50 nM and the “Cell Killing Activity Span” value (OPM-2 (MM)) was “NK”. The IC50 (OPM-2 (MM)) was > 50 nM, the “Cell Killing Activity Span” value (K562 (CML)) was “NK” and the IC50 (K562 (CML)) was > 50 nM.
